Test results: US20230257470A1 (published 2023)
Where a chain is given by its changes, count along the chain named. Blank lines part the entries; values can stand above or below the binder they belong to.

Assays:
human FcγRIIa type H [1] = target: T1, human FcγRIIa type H (human, UniProt P12318 36-217); assay: SPR (Biacore), FcγR over captured antibody; binding amount relative to IL6R-BF648/IL6R-L x100
T1 construct: also called FcyRIIaH; FcγRIIa(H)
T1 sequence: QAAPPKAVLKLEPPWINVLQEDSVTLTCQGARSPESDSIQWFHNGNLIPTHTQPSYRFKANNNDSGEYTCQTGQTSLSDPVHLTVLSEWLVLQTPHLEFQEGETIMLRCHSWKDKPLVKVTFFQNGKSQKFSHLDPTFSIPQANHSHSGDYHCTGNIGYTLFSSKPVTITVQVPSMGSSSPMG

human FcγRIIIa type V [2] = target: T2, human FcγRIIIa type V (human, UniProt P08637 17-208, limits assumed); assay: as above
T2 construct: also called FcyRIIIa; FcγRIIIaV
T2 sequence (P08637 other isoform, or with tags, fused parts or gaps limits assumed): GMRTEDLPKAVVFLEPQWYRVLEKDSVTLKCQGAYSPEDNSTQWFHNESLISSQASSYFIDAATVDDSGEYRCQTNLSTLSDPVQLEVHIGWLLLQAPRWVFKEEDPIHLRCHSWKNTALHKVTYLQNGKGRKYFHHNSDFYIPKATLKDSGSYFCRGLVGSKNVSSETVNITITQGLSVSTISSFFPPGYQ

human FcγRIa [3] = target: T3, human FcγRIa (human, UniProt P12314 16-292, limits assumed); assay: as above
T3 construct: also called FcyRIa; CD64
T3 sequence (P12314 16-292 limits assumed): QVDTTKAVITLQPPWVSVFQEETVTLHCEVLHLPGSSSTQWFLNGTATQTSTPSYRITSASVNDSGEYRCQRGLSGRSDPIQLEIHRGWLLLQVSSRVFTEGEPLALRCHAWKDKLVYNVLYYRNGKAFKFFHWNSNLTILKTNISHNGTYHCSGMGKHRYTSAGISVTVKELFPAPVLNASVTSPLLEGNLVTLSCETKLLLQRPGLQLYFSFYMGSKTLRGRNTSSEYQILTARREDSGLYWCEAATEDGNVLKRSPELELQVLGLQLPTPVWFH

human FcγRIIIa type V [4] = target: T4, human FcγRIIIa type V (human, UniProt P08637 17-208, limits assumed); assay: SPR (Biacore), FcγR over captured antibody; binding amount divided by that of IL6R-BF648/IL6R-L x 100
T4 construct: also called FcgRIIIaV; FcγRIIIa(V)
T4 sequence (P08637 other isoform, or with tags, fused parts or gaps limits assumed): as the sequence (P08637 other isoform, or with tags, fused parts or gaps limits assumed) above
Procedure: (§1) According to the following method, relative binding activities were calculated for the results of analyzing interactions with the respective FcγRs.

human FcγRIa [5] = target: T5, human FcγRIa (human, UniProt P12314 16-292, limits assumed); assay: as above
T5 construct: also called FcgRIa; FcγRI (CD64)
T5 sequence (P12314 16-292 limits assumed): as the sequence (P12314 16-292 limits assumed) above
Procedure: as §1

human FcγRIIa type R = target: T6, human FcγRIIa type R (human, UniProt P12318 36-217); assay: as above
T6 construct: also called FcgRIIaR; FcγRIIa(R)
T6 chain: T1 sequence with H133R
Procedure: as §1

human FcγRIIa type H [6] = target: T7, human FcγRIIa type H (human, UniProt P12318 36-217); assay: as above
T7 construct: also called FcgRIIaH; FcγRIIa(H)
T7 sequence: T1 sequence
Procedure: as §1

human FcγRIIb [7] = target: T8, human FcγRIIb (human, UniProt P31994 43-217, limits assumed); assay: as above
T8 construct: also called FcgRIIb; FcγIIB
T8 sequence: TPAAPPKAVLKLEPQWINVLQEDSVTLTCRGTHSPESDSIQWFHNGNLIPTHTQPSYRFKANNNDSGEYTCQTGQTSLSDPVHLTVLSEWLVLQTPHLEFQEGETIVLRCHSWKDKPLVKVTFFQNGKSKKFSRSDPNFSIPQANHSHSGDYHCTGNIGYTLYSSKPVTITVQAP
Procedure: as §1

human FcγRIIb [8] = target: T9, human FcγRIIb (human, UniProt P31994 43-217, limits assumed); assay: SPR (Biacore), FcγR over captured antibody; binding amount relative to IL6R-BF648/IL6R-L x100
T9 construct: also called FcyRIfb; FcγIIB
T9 sequence: T8 sequence

B1: IL6R-2B128/IL6R-L (antibody, human IgG1, name in EU numbering)
heavy: QVQLQESGPGLVKPSETLSLTCAVSGHSISHDHAWSWVRQPPGEGLEWIGFISYSGITNYNPSLQGRVTISRDNSKNTLYLQMNSLRAEDTAVYYCARSLARTTAMDYWGEGTLVTVSSASTKGPSVFPLAPSSKSTSGGTAALGCLVKDYFPEPVTVSWNSGALTSGVHTFPAVLQSSGLYSLSSVVTVPSSSLGTQTYICNVNHKPSNTKVDKKVEPKSCDKTHTCPPCPAPELLGGDSVFLFPPKPKDTLMISRTPEVTCVVVDVSHEDPEVKFNWYVDGVEVHNAKTKPREEQDNSTYRVVSVLTVLHQDWLNGKEYKCKVSNKALPAPIEKTISKAKGQPREPQVYTLPPSRDELTKNQVSLTCLVKGFYPSDIAVEWESNGQPENNYKTTPPVLDSDGSFFLYSKLTVDKSRWQQGNVFSCSVMHEALHNHYTQESLSLSP
light: DIQMTQSPSSLSASVGDRVTITCRASQDISSYLNWYQQKPGKAPKLLIYYTSRLHSGVPSRFSGSGSGTDFTFTISSLQPEDIATYYCQQGNTLPYTFGQGTKVEIK
relative binding (human FcγRIIa type H [1]): 37 % of IL6R-BF648/IL6R-L | relative binding (human FcγRIIIa type V [2]): 96 % of IL6R-BF648/IL6R-L | relative binding (human FcγRIa [3]): 95 % of IL6R-BF648/IL6R-L

B4: IL6R-BP117/IL6R-L (antibody, human IgG1, name in EU numbering)
heavy: B1 heavy with D298Y, K328D
light: B1 light
relative binding (human FcγRIIb [8]): 118 % of IL6R-BF648/IL6R-L | relative binding (human FcγRIIa type H [1]): 96 % of IL6R-BF648/IL6R-L | relative binding (human FcγRIa [3]): 124 % of IL6R-BF648/IL6R-L

B6: IL6R-BP112/IL6R-L (antibody, human IgG1, name in EU numbering)
heavy: B1 heavy with P273G, D298Y
light: B1 light
relative binding (human FcγRIIb [8]): 157 % of IL6R-BF648/IL6R-L | relative binding (human FcγRIIa type H [1]): 113 % of IL6R-BF648/IL6R-L | relative binding (human FcγRIa [3]): 119 % of IL6R-BF648/IL6R-L

B8: IL6R-BP120/IL6R-L (antibody, human IgG1, name in EU numbering)
heavy: B1 heavy with D298Y, K328E
light: B1 light
relative binding (human FcγRIIb [8]): 114 % of IL6R-BF648/IL6R-L | relative binding (human FcγRIa [3]): 125 % of IL6R-BF648/IL6R-L

The remaining lines, values ahead:

relative binding (human FcγRIIa type H [1]): 132 % of IL6R-BF648/IL6R-L | relative binding (human FcγRIa [3]): 113 % of IL6R-BF648/IL6R-L
B2: IL6R-BP126/IL6R-L (antibody, human IgG1, name in EU numbering)
heavy: B1 heavy with D298Y, K328L
light: B1 light

relative binding activity (human FcγRIIIa type V [4]): 95 relative (IL6R-BF648/IL6R-L = 100) | relative binding activity (human FcγRIa [5]): 68 relative (IL6R-BF648/IL6R-L = 100) | relative binding activity (human FcγRIIa type R): 111 relative (IL6R-BF648/IL6R-L = 100) | relative binding activity (human FcγRIIa type H [6]): 98 relative (IL6R-BF648/IL6R-L = 100) | relative binding activity (human FcγRIIb [7]): 138 relative (IL6R-BF648/IL6R-L = 100)
B3: IL6R-BP129/IL6R-L (antibody, human IgG1, name in EU numbering)
heavy: B1 heavy with E235D, A332K
light: B1 light
notes: copies: 2 + 2

relative binding activity (human FcγRIIIa type V [4]): 100 relative (IL6R-BF648/IL6R-L = 100) | relative binding activity (human FcγRIa [5]): 29 relative (IL6R-BF648/IL6R-L = 100) | relative binding activity (human FcγRIIa type R): 602 relative (IL6R-BF648/IL6R-L = 100) | relative binding activity (human FcγRIIa type H [6]): 203 relative (IL6R-BF648/IL6R-L = 100) | relative binding activity (human FcγRIIb [7]): 179 relative (IL6R-BF648/IL6R-L = 100)
B5: IL6R-BP180/IL6R-L (antibody, human IgG1, name in EU numbering)
heavy: B1 heavy with G239D, P273G, D298Y, A332K
light: B1 light
notes: copies: 2 + 2

relative binding activity (human FcγRIIIa type V [4]): 3350 relative (IL6R-BF648/IL6R-L = 100) | relative binding activity (human FcγRIa [5]): 140 relative (IL6R-BF648/IL6R-L = 100) | relative binding activity (human FcγRIIa type R): 650 relative (IL6R-BF648/IL6R-L = 100) | relative binding activity (human FcγRIIa type H [6]): 1670 relative (IL6R-BF648/IL6R-L = 100) | relative binding activity (human FcγRIIb [7]): 62 relative (IL6R-BF648/IL6R-L = 100)
B7: IL6R-G1d/IL6R-L (antibody, human IgG1)
heavy: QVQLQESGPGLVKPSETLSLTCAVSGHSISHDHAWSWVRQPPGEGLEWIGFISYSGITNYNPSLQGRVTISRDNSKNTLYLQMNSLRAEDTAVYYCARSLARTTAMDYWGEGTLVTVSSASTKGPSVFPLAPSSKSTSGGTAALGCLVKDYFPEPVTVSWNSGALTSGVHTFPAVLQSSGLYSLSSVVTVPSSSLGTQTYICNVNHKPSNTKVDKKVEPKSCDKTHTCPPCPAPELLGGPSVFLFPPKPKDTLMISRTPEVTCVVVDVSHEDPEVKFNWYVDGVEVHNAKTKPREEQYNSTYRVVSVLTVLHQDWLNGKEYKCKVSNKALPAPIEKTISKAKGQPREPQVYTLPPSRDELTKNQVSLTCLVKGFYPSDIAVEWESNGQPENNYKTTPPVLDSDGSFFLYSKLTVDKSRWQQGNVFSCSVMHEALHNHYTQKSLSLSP
light: B1 light
notes: Anti-human IL-6 receptor human IgG1 with G1d constant region (C-terminal Gly and Lys removed); template used for producing IL6R-B3; also called IgG1; copies: 2 + 2

relative binding activity (human FcγRIIIa type V [4]): 186 relative (IL6R-BF648/IL6R-L = 100) | relative binding activity (human FcγRIa [5]): 57 relative (IL6R-BF648/IL6R-L = 100) | relative binding activity (human FcγRIIa type R): 691 relative (IL6R-BF648/IL6R-L = 100) | relative binding activity (human FcγRIIa type H [6]): 409 relative (IL6R-BF648/IL6R-L = 100) | relative binding activity (human FcγRIIb [7]): 177 relative (IL6R-BF648/IL6R-L = 100)
B9: IL6R-BP177/IL6R-L (antibody, human IgG1, name in EU numbering)
heavy: B1 heavy with E235D, L236Y, G239D, P273G, D298Y, K328D, A332K
light: B1 light
notes: the list runs over r41 and r42; copies: 2 + 2

relative binding activity (human FcγRIIIa type V [4]): 209 relative (IL6R-BF648/IL6R-L = 100) | relative binding activity (human FcγRIa [5]): 24 relative (IL6R-BF648/IL6R-L = 100) | relative binding activity (human FcγRIIa type R): 650 relative (IL6R-BF648/IL6R-L = 100) | relative binding activity (human FcγRIIa type H [6]): 582 relative (IL6R-BF648/IL6R-L = 100) | relative binding activity (human FcγRIIb [7]): 177 relative (IL6R-BF648/IL6R-L = 100)
B10: IL6R-BP147/IL6R-L (antibody, human IgG1, name in EU numbering)
heavy: B1 heavy with L236Y, G239D, D298Y, K328A, A332K
light: B1 light
notes: the list runs over r28 and r29; copies: 2 + 2
